± gives the uncertainty stated by the source.
Test: self-splicing fitness, log relative to wild type (ln ratio); higher = more splicing; Tetrahymena group I intron in knt gene, E. coli kanamycin selection, DiMSum; sequences stand for … in CUCUCU…GGAGGGAAAAGUUAUCAGGCAUGCACCUGGUAGCUAGUCUUUAAACCAAUAGAUUGCAUCGGUUUAAAAGGCAAGACCGUCAAAUUGCGGGAAAGGGGUCAACAGCCGUUCAGUACCAAGUCUCAGGGGAAACUUUGAGAUGGCCUUGCAAAGGGUAUGGUAAUAAGCUGACGGACAUGGUCCUAACCACGCAGCCAAGUCCUAAGUCAACAGAUCUUCUGUUGAUAUGGAUGCAGUUCACAGACUAAAUGUCGGUCGGGGAAGAUGUAUUCUUCUCAUAAGAUAUAGUCGGACCUCUCCUUAAUGGGAGCUAGCGGAUGAAGUGAUGCAACACUGGAGCCGCUGGGAACUAAUUUGUAUGCGAAAGUAUAUUGAUUAGUUUUGGAGUACUCGUGGUCG
In short: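 Fitness was computed with DiMSum as the error-weighted combination of replicate fold changes, kanamycin versus none, each normalised to wild type. The library randomised all eight intron nucleotides of the P1ex region, with the intron placed in the knt kanamycin-resistance gene on pET-22b(+) in E. coli BL21(DE3). Six replicate transformations were grown overnight at 37°C or 30°C on LB agar with or without 25 μg/mL kanamycin, plus 100 μg/mL carbenicillin, 50 μM IPTG and 0.2% rhamnose. Pooled colonies were amplicon-sequenced on an Illumina HiSeq 2500.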

Sequence	self-splicing fitness (ln) (30 °C)	self-splicing fitness (ln) (37 °C)
GCGCAGCAAUAUUACGUCCU	-0.435 ± 0.12	0.126 ± 0.14
UAGAAGCAAUAUUACGCGGA	-1.64 ± 0.13	-0.655 ± 0.11
GCAAAGCAAUAUUACGCGAU	-2.8 ± 0.23	-2.73 ± 0.3
AUCCAGCAAUAUUACGCUGC	-3.85 ± 0.19	-1.59 ± 0.15
GUCCAGCAAUAUUACGGGUA	-0.764 ± 0.061	0.14 ± 0.066
UGCCAGCAAUAUUACGGACU	-0.709 ± 0.075	0.139 ± 0.089
CCAAAGCAAUAUUACGGGCC	-2.51 ± 0.46	-2.23 ± 0.42
GGCUAGCAAUAUUACGUGGC	-2.66 ± 0.28	-1.23 ± 0.28
AAGAAGCAAUAUUACGCCAA	-2.24 ± 0.25	-1.04 ± 0.21
GUACAGCAAUAUUACGGUAG	-1.31 ± 0.062	-0.303 ± 0.068
ACCAAGCAAUAUUACGCACC	-0.532 ± 0.078	-0.199 ± 0.11
AUUCAGCAAUAUUACGUCUG	-2.09 ± 0.11	-1.33 ± 0.11
AAUUAGCAAUAUUACGGGAG	-2.99 ± 0.19	-2.17 ± 0.16
ACGGAGCAAUAUUACGGUUG	-3.93 ± 0.31	-2.22 ± 0.18
AUUAAGCAAUAUUACGAGUU	-2.42 ± 0.17	-1.27 ± 0.22
UCGUAGCAAUAUUACGUUUG	-3.19 ± 0.18	-1.56 ± 0.2
CUCUAGCAAUAUUACGGUCA	-3.27 ± 0.29	-3.17 ± 0.37
UAAUAGCAAUAUUACGACCU	-1.69 ± 0.15	-0.4 ± 0.15
UUAUAGCAAUAUUACGGGUU	-3.8 ± 0.26	-1.13 ± 0.15

Sequence	self-splicing fitness (ln) (30 °C)	self-splicing fitness (ln) (37 °C)
CAAGAGCAAUAUUACGUAGC		-1.86 ± 0.43
GUCAAGCAAUAUUACGGAGA	-3.61 ± 0.26	-3.41 ± 0.39
UUCGAGCAAUAUUACGUUUC	-3.44 ± 0.35	-2.37 ± 0.35
CGAGAGCAAUAUUACGUCAA	-3.22 ± 0.21	-2.4 ± 0.27
GGGUAGCAAUAUUACGGAGA	-4.31 ± 0.3	-3.19 ± 0.23
CAUAAGCAAUAUUACGCCAG	-1.42 ± 0.14	-0.932 ± 0.19
UUGGAGCAAUAUUACGAUUA	-0.16 ± 0.41	-1.3 ± 0.39
AGUCAGCAAUAUUACGAUAU	-0.289 ± 0.096	0.475 ± 0.11
UGUUAGCAAUAUUACGUACC	-0.945 ± 0.14	0.399 ± 0.17
GACUAGCAAUAUUACGUCUG	-3.86 ± 0.25	-1.57 ± 0.23
UACUAGCAAUAUUACGUAAC	-2.8 ± 0.17	-3.33 ± 0.42
CUCAAGCAAUAUUACGUUGA	-3.13 ± 0.21	-2.48 ± 0.2
UGUAAGCAAUAUUACGGCAU	-1.48 ± 0.12	-0.402 ± 0.11
UCAAAGCAAUAUUACGUCUG	-1.05 ± 0.076	-0.306 ± 0.087
CGACAGCAAUAUUACGCGAG	-1.5 ± 0.16	-2.32 ± 0.21
CUGAAGCAAUAUUACGUGCU	-4.66 ± 0.34	-2.95 ± 0.34
UCCCAGCAAUAUUACGCCGU	-3.11 ± 0.22	-2.27 ± 0.21
UUACAGCAAUAUUACGGCCU	-0.981 ± 0.17	-1.23 ± 0.26

Reference: the supplement of paper PMC7877785
